Measured values reported in patent publication US7422862B2, “Methods for identifying modulators of apoptosis” (The Burnham Institute, priority 2001, dated 2008).
No end group written: not given here.

Assays:
[1] = target: Bcl-XL (Homo sapiens, UniProt Q07817); experiment: Fluorescence polarization assay, Bcl-XL specificity control; type: binding
Description: The binding of Humanin to Bax was further investigated using an in vitro binding assay. In this example, the in vitro binding assay is a fluorescence polarization assay (FPA). For this experiment, full-length Bax protein was produced in bacteria and purified. Various concentrations of Bax protein were incubated with 40 nM of rhodamine-conjugated synthetic purified Humanin peptide. The extent of peptide binding was then monitored by measuring polarization of monochromatic light passed through the sample, where peptide binding to the bulkier protein slows the rate of peptide tumbling in solution, enhancing the polarization effect.
(§2) Fluorescence Polarization Assays were performed as follows. Recombinant Bax protein was isolated from E. coli BL21 harboring pTYB1-Bax essentially as described (Suzuki et al., Cell 103:645-654 (2000)). For fluorescence polarization assays (FPA), various concentrations of Bax protein were incubated with 40 nM of rhodamine-conjugated synthetic purified Humanin peptide dissolved in water for 30 minutes in dark. Fluorescence polarization was measured using an AnalystTM AD Assay Detection System (LJL Biosystem, Sunnyvale, Calif.).

[2] = test system: Bax; experiment: Bax-induced lethality in yeast; type: cell-based, S. cerevisiae; conditions: TAD-fusion polypeptide, galactose-induced Bax
[3] = target: T1, GFP-Bax (Homo sapiens, UniProt Q07812); experiment: STS-induced GFP-Bax translocation to mitochondria in Cos7 cells (confocal microscopy); type: cell-based; conditions: peptide transduced with Chariot, 1 μM STS
T1 construct: expressed in transfected cells; host or cells: Cos-7
Description: (§1) (A-B) Humanin peptide prevents STS-induced Bax translocation in vivo. Cos-7 cells were first transfected with GFP-Bax plasmids. After 24 hrs, untagged wild-type or C8P mutant Humanin peptides were introduced into cells using ChariotTM reagent, and 2 h later cells were treated with 1 μM STS. After 4 h, the percentage of cells with translocated Bax was determined (mean±SD; n=3) by confocal microscopy (A) and representative photomicrographs (B). (C) Wild-type or C8P mutant Humanin peptides were introduced into Cos7 cells using ChariotTM reagent. Cytosolic (C) and mitochondria-containing (M) fractions were isolated by differential centrifugation 23 and analyzed by immunoblotting using anti-Bax (top), Hsp60 (middle) (mitochondrial marker), or Tubulin (bottom) (cytosol marker) antibodies. (D) HN or mutant control double-strand siRNAs were transfected into SF268 cells. After 48 h, cells were cultured without (Control) or with 0.1 uM STS. After 24 hr, cells were fractionated and analyzed by immunoblotting as above. (E) Isolated mitochondria were mixed with 400 ng Bax protein, with or without preincubating Bax with 100 uM Humanin or Humanin(C8P) peptides for 10 min. After 3 h at 30° C., mitochondria were centrifuged and the resulting pellets (P) and supernatants (S) were analyzed by immunoblotting using anti-Cytochrome c (top), Hsp60 (middle), and Bax (bottom) antibodies. […]

[4] = test system: endogenous Bax protein; experiment: Subcellular fractionation and immunoblot of endogenous Bax after STS; type: cell-based; conditions: Cos7 cells, untagged peptides, STS
Description: as §1, with “(E) Isolated mitochondria were mixed with 400 ng Bax protein, with or without preincubating Bax with 100 uM Humanin or Humanin(C8P) peptides for 10 min.” left out
These findings were also confirmed by subcellular fractionation, where cytosol and mitochondria-enriched heavy membrane preparations were prepared from Cos7 cells transduced with untagged Humanin or Humanin(C8P) peptides, and the relative amounts of endogenous Bax protein in these two fractions were measured by immunoblot analysis of samples normalized for cell-equivalents. […] Differences in the relative potency of Humanin at blocking Bax translocation as measured by microscopy (FIG. 7A) versus cell fractionation methods (FIG. 7C) can be explained by differences in the sensitivity of the assays, or could possibly indicate that even in cells where some Bax translocation has occurred, less of the total Bax protein associated with mitochondria. […]

[5] = target: T2, purified recombinant Bax (Homo sapiens, UniProt Q07812); experiment: Isolated mitochondria: Bax association and cytochrome c release assay; type: biochemical; conditions: 100 μM peptide preincubated with Bax, HCT116 mitochondria
Description: (A-B) Humanin peptide prevents STS-induced Bax translocation in vivo. Cos-7 cells were first transfected with GFP-Bax plasmids. After 24 hrs, untagged wild-type or C8P mutant Humanin peptides were introduced into cells using ChariotTM reagent, and 2 h later cells were treated with 1 μM STS. After 4 h, the percentage of cells with translocated Bax was determined (mean±SD; n=3) by confocal microscopy (A) and representative photomicrographs (B). (C) Wild-type or C8P mutant Humanin peptides were introduced into Cos7 cells using ChariotTM reagent. Cytosolic (C) and mitochondria-containing (M) fractions were isolated by differential centrifugation 23 and analyzed by immunoblotting using anti-Bax (top), Hsp60 (middle) (mitochondrial marker), or Tubulin (bottom) (cytosol marker) antibodies. (D) HN or mutant control double-strand siRNAs were transfected into SF268 cells. After 48 h, cells were cultured without (Control) or with 0.1 uM STS. After 24 hr, cells were fractionated and analyzed by immunoblotting as above. (E) Isolated mitochondria were mixed with 400 ng Bax protein, with or without preincubating Bax with 100 uM Humanin or Humanin(C8P) peptides for 10 min. After 3 h at 30° C., mitochondria were centrifuged and the resulting pellets (P) and supernatants (S) were analyzed by immunoblotting using anti-Cytochrome c (top), Hsp60 (middle), and Bax (bottom) antibodies. (F) HN peptide enforces the interaction of Bax TM domain with Bax.TM. Lysates from HEK293T cells expressing Flag-Bax.TM were pretreated with or without Humanin or Humanin(C8P) peptides. Lysates were then mixed in vitro with lysates of HEK293T cells expressing GFP-TM(Bax). Immunoprecipitations were performed with anti-Flag antibody, analyzing lysates and immunoprecipitates (IP) by immunoblotting using monoclonal anti-GFP antibody.
To determine whether Humanin can act directly on Bax, the effects of Humanin on isolated mitochondria were tested. Addition of recombinant purified Bax protein to mitochondria in vitro induces cytochrome c release (Jurgensmeier et al., Proc. Natl. Acad. Sci. USA 95:4997-5002 (1998)). […] Therefore Humanin can directly suppress Bax targeting to mitochondria, without requirement for intact cells.
Cytochrome c release assays were performed as follows. Mitochondria were isolated from HCT116 cells by differential centrifugation as described above. Purified recombinant human Bax protein (400 ng for each sample) was pre-incubated with or without 100 μM synthetic Humanin peptide or mutant Humanin (C8P) peptide for 10 min at 4° C. The untreated or peptide pre-treated Baxprotein samples were then mixed with equal amount of HCT116 mitochondria (in a volume of 40 μl) at 30° C. for 3 hours. […]

[6] = target: T3, BaxΔTM (Homo sapiens, UniProt Q07812); experiment: Co-immunoprecipitation of BaxΔTM with GFP-TM(Bax); type: binding; conditions: lysates pre-incubated with peptide
T3 construct: a C-terminally truncated Bax protein (residues 1-169) (BaxΔTM); expressed in transfected cells; host or cells: HEK293T (lysates mixed in vitro)
Description: as §1

[7] = target: T2, purified recombinant Bax; experiment: Fluorescence polarization assay (FPA) of rhodamine-labelled peptide binding to Bax; design: full-length Bax protein was produced in bacteria and purified; made in house; host or cells: E. coli BL21; conditions: rhodamine-labelled control peptides
Description: (C) The affinity (Kd) of Bax/HN interaction was measured by fluorescence polarization assay, using various concentrations of purified recombinant Bax and 40 nM rhodamine-conjugated HN peptide. Control peptide from CD40 is also shown (mean +Std Dev; n=3).
In this example, the in vitro binding assay is a fluorescence polarization assay (FPA). For this experiment, full-length Bax protein was produced in bacteria and purified. Various concentrations of Bax protein were incubated with 40 nM of rhodamine-conjugated synthetic purified Humanin peptide. The extent of peptide binding was then monitored by measuring polarization of monochromatic light passed through the sample, where peptide binding to the bulkier protein slows the rate of peptide tumbling in solution, enhancing the polarization effect.
as §2

T2 sequence (Q07812 whole entry): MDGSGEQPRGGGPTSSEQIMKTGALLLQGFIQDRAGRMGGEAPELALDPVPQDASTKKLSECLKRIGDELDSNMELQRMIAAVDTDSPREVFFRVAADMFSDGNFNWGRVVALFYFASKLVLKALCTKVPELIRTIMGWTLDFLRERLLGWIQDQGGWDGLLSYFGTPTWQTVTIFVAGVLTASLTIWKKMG
T1 sequence (Q07812 whole entry): as above
Sequence of Bcl-XL (Q07817 whole entry, species assumed, the tested form may be a part): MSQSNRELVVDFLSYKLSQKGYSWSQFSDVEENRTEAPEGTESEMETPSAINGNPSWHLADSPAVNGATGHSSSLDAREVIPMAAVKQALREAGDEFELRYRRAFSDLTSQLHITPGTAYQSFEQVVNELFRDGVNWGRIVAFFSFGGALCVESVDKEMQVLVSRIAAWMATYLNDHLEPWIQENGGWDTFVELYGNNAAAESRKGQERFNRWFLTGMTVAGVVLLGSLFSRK
T3 sequence (Q07812 1-169, stated change not applied): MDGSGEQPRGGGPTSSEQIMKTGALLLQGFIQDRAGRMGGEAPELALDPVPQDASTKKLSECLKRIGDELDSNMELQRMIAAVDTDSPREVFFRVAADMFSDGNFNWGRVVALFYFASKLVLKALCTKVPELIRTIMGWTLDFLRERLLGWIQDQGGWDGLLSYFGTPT
T3 sequence (Q07812 170-192 partner limits assumed): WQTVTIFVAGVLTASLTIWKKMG

**Q.** How did the “binding to Bcl-XL in fluorescence polarization assay” value [1] turn out when `CC[C@H](C)[C@H](NC(=O)[C@H](CCC(=O)O)NC(=O)[C@H](CO)NC(=O)[C@@H](NC(=O)[C@H](CC(C)C)NC(=O)[C@H](CC(C)C)NC(=O)[C@H](CC(C)C)NC(=O)[C@H](CC(C)C)NC(=O)[C@H](CS)NC(=O)[C@H](CO)NC(=O)[C@H](Cc1ccccc1)NC(=O)CNC(=O)[C@H](CCCNC(=N)N)NC(=O)[C@@H]1CCCN1C(=O)[C@H](C)NC(=O)[C@H](CCSC)NC(=O)CCCCCNC(=O)c1ccccc1-c1c2ccc(=[N+](CC)CC)cc-2oc2cc(N(CC)CC)ccc12)[C@@H](C)O)C(=O)N[C@@H](CC(=O)O)C(=O)N[C@@H](CC(C)C)C(=O)N1CCC[C@H]1C(=O)N[C@H](C(=O)N[C@@H](CCCCN)C(=O)N[C@@H](CCCNC(=N)N)C(=O)N[C@@H](CCCNC(=N)N)C(=O)N[C@@H](C)C(N)=O)C(C)C` [rhodamine-HN] was run?
**A.** did not bind

**Q.** How did the “rescue of yeast from Bax-induced lethality” value [2] turn out when “Humanin(C8P): synthetic Humanin peptide (or TAD-fusion in yeast) with C8P mutation, non-Bax-binding (MAPRGFSPLLLLTSEIDLPVKRRA; UniProt Q8IVG9 1-24, looked up, variant C8P)” was run?
**A.** did not rescue

**Q.** And the “suppression of GFP-Bax translocation” value [3]?
**A.** not

**Q.** What about the “Bax translocation by subcellular fractionation” value [4] of the same molecule?
**A.** no effect

**Q.** And the “Bax association with mitochondria” value [5]?
**A.** did not interfere

**Q.** And the cytochrome c release [5]?
**A.** did not interfere

**Q.** And the “interaction of BaxΔTM with GFP-TM” value [6]?
**A.** did not promote

**Q.** With “rhodamine-CD40: rhodamine-labelled control peptide from CD40 (residue 250P to 266G) (PVQETLHGCQPVTQEDG; also: rhodamine label; UniProt P25942 250-266, looked up, fragment)” as the molecule, how does the “interaction with Bax in fluorescence polarization assay” value [7] read?
**A.** did not display interactions
